Measured values: US20260022175A1 (Chugai, published 2026)
Where a chain is given by its changes, count along the chain named. Blank lines part the entries; values can stand above or below the binder they belong to.

Columns and labels:
[1] = target: T1, human FcγRIIb extracellular domain with C-terminal His-tag (human, UniProt P31994 43-217); assay: SPR; binding amount divided by that of 04H1637-G1m/04L1610-lam1
T1 construct: extracellular domain; also called hFcγR IIb
T1 sequence (looked up): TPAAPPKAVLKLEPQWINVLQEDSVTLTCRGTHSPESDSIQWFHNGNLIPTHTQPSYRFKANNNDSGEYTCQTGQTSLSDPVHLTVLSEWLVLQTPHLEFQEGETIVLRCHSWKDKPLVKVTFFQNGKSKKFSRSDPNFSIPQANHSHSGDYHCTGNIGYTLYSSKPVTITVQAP

[2] = target: T2, human FcγRIIa H allotype extracellular domain with C-terminal His-tag (human, UniProt P12318 34-217); assay: SPR Biacore T200, Ab captured via Fab-lambda, pH 7.4, 25C;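 further: antibodies captured on a streptavidin chip carrying biotinylated anti-Fab-lambda, with each FcγR injected as analyte in phosphate buffer. KD fitted by 1:1 Langmuir or steady-state model depending on receptor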
T2 construct: extracellular domain; also called hFcγR IIa H
T2 sequence (looked up): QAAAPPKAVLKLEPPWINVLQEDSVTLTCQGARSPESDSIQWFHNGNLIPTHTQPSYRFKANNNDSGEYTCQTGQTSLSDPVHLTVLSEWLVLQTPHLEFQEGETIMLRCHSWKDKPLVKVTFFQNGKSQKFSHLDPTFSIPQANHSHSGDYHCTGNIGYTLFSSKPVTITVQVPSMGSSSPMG

[3] = target: T3, human FcγRIIIa F allotype extracellular domain with C-terminal His-tag (human, UniProt P08637 17-208); assay: as above
T3 construct: extracellular domain; also called hFcγR IIIa F

[4] = target: T4, human FcγRIIa R allotype extracellular domain with C-terminal His-tag (human, UniProt P12318 34-217); assay: as above
T4 construct: extracellular domain; also called hFcγR IIa R
T4 sequence (looked up): T2 sequence (looked up) with H134R

[5] = target: T5, human FcγRIIIa V allotype extracellular domain with C-terminal His-tag (human, UniProt P08637 17-208); assay: as above
T5 construct: extracellular domain; also called hFcγR IIIa V

[6] = target: T6, human FcγRIa extracellular domain with C-terminal His-tag (human, UniProt P12314 16-292); assay: as above
T6 construct: extracellular domain; also called hFcγR Ia; hFcγRIa

[7] = target: T2, human FcγRIIa H allotype extracellular …; assay: SPR; KD of 04H1637-G1m/04L1610-lam1 divided by KD of variant;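 further: biacore T200 SPR at 25 °C, antibodies captured on anti-Fab-lambda SA chip with receptor as analyte, running buffer pH 7.4 for FcγRs and pH 6.0 for FcRn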
Procedure: (§1) The interaction between the generated antibodies and human FcγRs was analyzed by the following method using Biacore T200. 50 mM Na-Phosphate, 150 mM NaCl, 0.05% Tween20 (pH 7.4) was used as the running buffer, and the assay was performed at 25° C. For the sensor chips, Series S SA (GE Healthcare) chips onto which CaptureSelect Human Fab-lambda Kinetics Biotin Conjugate (Thermo Fisher Scientific) was immobilized were used. The antibodies of interest were captured onto these chips and each FcγR diluted in the running buffer was allowed to interact with them. Chips were regenerated with 10 mM Glycine-HCl (pH 1.5) and 25 mM NaOH, and assay was performed by repeatedly capturing antibodies. The dissociation constants KD (mol/L) for FcγRs of each antibody were calculated using Biacore T200 Evaluation Software 2.0, using the 1:1 Langmuir binding model for FcγRIa and FcγRIIIa and the steady state affinity model for FcγRIIa. For FcγRIIb, the binding amount of FcγRIIb per unit amount of antibody was calculated by correcting the binding amount of FcγRIIb obtained from the sensorgram obtained by the measurement with the amount of antibody captured onto the chip surface.
(§2) The interaction between the generated antibodies and human FcRn was analyzed by the following method using Biacore T200. 50 mM Na-Phosphate, 150 mM NaCl, 0.05% Tween20 (pH 6.0) was used as the running buffer, and the assay was performed at 25° C. For the sensor chip, Series S SA (GE Healthcare) chips onto which CaptureSelect Human Fab-lambda Kinetics Biotin Conjugate (Thermo Fisher Scientific) was immobilized were used. The antibodies of interest were captured onto these chips and FcRn diluted in the running buffer was allowed to interact with them. Chips were regenerated with 10 mM Glycine-HCl (pH 1.5) and 25 mM NaOH, and assay was performed by repeatedly capturing antibodies. The dissociation constant for FcRn of each antibody was calculated using the steady state model, using Biacore T200 Evaluation Software 2.0.

[8] = target: T3, human FcγRIIIa F allotype extracellular …; assay: as above
Procedure: as §1, §2

[9] = target: T4, human FcγRIIa R allotype extracellular …; assay: as above
Procedure: as §1, §2

[10] = target: T5, human FcγRIIIa V allotype extracellular …; assay: as above
Procedure: as §1, §2

[11] = target: T6, human FcγRIa extracellular domain with …; assay: as above
Procedure: as §1, §2

human FcRn [12] = target: T7, human FcRn (human, UniProt P55899 24-290; P61769 21-119); assay: as above
T7 construct: Prepared by the method of WO 2010/107110; also called hFcRn
Procedure: as §1, §2

human FcRn [13] = target: T7, human FcRn; assay: SPR Biacore T200, Ab captured via Fab-lambda, pH 6.0, 25C, steady state
Procedure: as §2

[14] = target: T1, human FcγRIIb extracellular domain with …; assay: SPR; FcγRIIb at 1000 nM, bound amount per unit captured Ab
[15] = target: T8, human FcγRIIb extracellular domain (human, UniProt P31994 43-217); assay: SPR Biacore 8K+, antibody captured, FcγR as analyte, steady state affinity model
T8 construct: extracellular domain; also called hFcγR IIb
T8 sequence (looked up): T1 sequence (looked up)

[16] = target: T9, human FcγRIIIa F extracellular domain (human, UniProt P08637 17-208); assay: SPR Biacore 8K+, antibody captured, FcγR as analyte, 1:1 Langmuir model;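 further: antibodies captured on a streptavidin chip through a biotinylated anti-human Fab kappa reagent, with FcγR extracellular domains injected in pH 7.4 phosphate buffer at 25 °C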
T9 construct: extracellular domain; also called hFcγR IIIa F
Procedure: (§3) The interaction between the produced antibodies and human FcγRs was analyzed using Biacore 8K+ by the method below. For the running buffer, 50 mM Na-Phosphate, 150 mM NaCl, and 0.05% Tween20 (pH 7.4) was used, and measurement was performed at 25° C. The sensor chip used was a Series S SA chip (GE Healthcare) onto which CaptureSelect Human Fab-kappa Kinetics Biotin Conjugate (Thermo Fisher Scientific) was immobilized. An antibody of interest was captured onto this chip, and each FcγR diluted with the running buffer was allowed to interact with it. The chip was regenerated using 10 mM Glycine-HCl (pH 1.5), and repeatedly used to capture antibodies and perform measurement. The dissociation constants KD (mol/L) of each antibody for FcγRs were calculated using Biacore Insight Evaluation Software, with a steady state affinity model for the dissociation constant for FcγRIIb and a 1:1 Langmuir binding model for the dissociation constants for the other FcγRs (Table 48).

[17] = target: T10, human FcγRIIa H extracellular domain (human, UniProt P12318 34-217); assay: as above
T10 construct: extracellular domain; also called hFcγR IIa H
T10 sequence (looked up): T2 sequence (looked up)
Procedure: as §3

[18] = target: T11, human FcγRIIa R extracellular domain (human, UniProt P12318 34-217); assay: as above
T11 construct: extracellular domain; also called hFcγR IIa R
T11 sequence (looked up): T2 sequence (looked up) with H134R
Procedure: as §3

[19] = target: T12, human FcγRIIIa V extracellular domain (human, UniProt P08637 17-208); assay: as above
T12 construct: extracellular domain; also called hFcγR IIIa V
Procedure: as §3

[20] = target: T13, human FcγRIa extracellular domain (human, UniProt P12314 16-292); assay: as above
T13 construct: extracellular domain; also called hFcγR Ia; hFcγRIa
Procedure: as §3

[21] = target: T9, human FcγRIIIa F extracellular domain; assay: SPR Biacore 8K+; KD for FcγRIIb divided by KD for this FcγR;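 further: antibodies captured on an anti-human Fab kappa SA chip with soluble human FcγR ectodomains flowed over, FcγRIIb KD from steady-state fit, other FcγR KD from Langmuir model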
[22] = target: T10, human FcγRIIa H extracellular domain; assay: as above
[23] = target: T11, human FcγRIIa R extracellular domain; assay: as above
[24] = target: T12, human FcγRIIIa V extracellular domain; assay: as above
[25] = target: T9, human FcγRIIIa F extracellular domain; assay: SPR Biacore 8K+; KD of G1d divided by KD of this antibody;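 further: antibodies captured on an anti-Fab-kappa streptavidin chip, soluble FcγR ectodomains flowed over, KD by steady-state fit for FcγRIIb and Langmuir kinetic model for the other receptors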
[26] = target: T10, human FcγRIIa H extracellular domain; assay: as above
[27] = target: T8, human FcγRIIb extracellular domain; assay: as above
[28] = target: T11, human FcγRIIa R extracellular domain; assay: as above
[29] = target: T12, human FcγRIIIa V extracellular domain; assay: as above
[30] = target: T13, human FcγRIa extracellular domain; assay: as above
[31] = target: hFcγRIIIaV on hFcγRIIIaV-expressing Jurkat cells (human, UniProt P08637 17-254); assay: cell-based or functional assay
[32] = target: T14, hFcγRIIaH on hFcγRIIaH-expressing Jurkat cells (human, UniProt P12318 34-317); assay: cell-based or functional assay
T14 sequence (looked up): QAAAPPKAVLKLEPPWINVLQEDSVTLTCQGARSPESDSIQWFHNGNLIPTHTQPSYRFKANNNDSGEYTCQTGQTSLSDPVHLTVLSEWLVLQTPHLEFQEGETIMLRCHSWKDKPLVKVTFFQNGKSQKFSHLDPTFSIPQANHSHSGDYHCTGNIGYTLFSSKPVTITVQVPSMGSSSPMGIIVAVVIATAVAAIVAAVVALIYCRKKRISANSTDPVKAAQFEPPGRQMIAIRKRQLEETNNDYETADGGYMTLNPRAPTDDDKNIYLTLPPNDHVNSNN

T9 sequence (P08637 17-208): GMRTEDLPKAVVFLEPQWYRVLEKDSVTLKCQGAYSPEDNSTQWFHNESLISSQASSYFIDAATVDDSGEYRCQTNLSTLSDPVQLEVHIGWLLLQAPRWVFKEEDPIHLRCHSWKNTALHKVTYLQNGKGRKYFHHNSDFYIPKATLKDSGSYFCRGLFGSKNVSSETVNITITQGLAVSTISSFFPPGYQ
T12 sequence (P08637 17-208 F176V limits assumed): as the sequence (P08637 17-208) above, with F160V counted along it
T3 sequence (P08637 17-208): as the sequence (P08637 17-208) above
T5 sequence (P08637 17-208 F176V): as the sequence (P08637 17-208) above, with F160V counted along it
T13 sequence (P12314 16-292): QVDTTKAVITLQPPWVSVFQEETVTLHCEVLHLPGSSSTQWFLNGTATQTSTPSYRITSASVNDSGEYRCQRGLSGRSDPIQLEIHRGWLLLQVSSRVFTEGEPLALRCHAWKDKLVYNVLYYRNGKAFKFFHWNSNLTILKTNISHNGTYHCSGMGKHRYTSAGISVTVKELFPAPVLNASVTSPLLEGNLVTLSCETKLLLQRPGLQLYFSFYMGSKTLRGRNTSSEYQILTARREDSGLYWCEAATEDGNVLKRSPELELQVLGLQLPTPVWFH
T6 sequence (P12314 16-292): as above
hFcγRIIIaV on hFcγRIIIaV-expressing Jurkat cells, sequence (P08637 17-254, form in doubt): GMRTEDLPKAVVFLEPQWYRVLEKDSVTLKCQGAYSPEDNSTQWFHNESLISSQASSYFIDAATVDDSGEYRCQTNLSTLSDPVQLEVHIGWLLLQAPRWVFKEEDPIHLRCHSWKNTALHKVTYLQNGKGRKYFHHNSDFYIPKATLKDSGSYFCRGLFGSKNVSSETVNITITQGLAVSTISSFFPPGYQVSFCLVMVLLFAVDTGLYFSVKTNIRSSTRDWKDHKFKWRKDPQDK

- Relative binding amount [1]: 1
- Kd [2]: 1500 nM
- Kd [3]: 1400 nM
- Kd [4]: 2000 nM
- Kd [5]: 240 nM
- Kd [6]: 0.049 nM
- Relative value to KD between G1m and hFcγRs [7]: 1
- Relative value to KD between G1m and hFcγRs [8]: 1
- Relative value to KD between G1m and hFcγRs [9]: 1
- Relative value to KD between G1m and hFcγRs [10]: 1
- Relative value to KD between G1m and hFcγRs [11]: 1
- Relative value to KD between G1m and hFcRn (human FcRn [12]): 1
- Kd (human FcRn [13]): 1300 nM
- Binding amount [14]: 0.008
B1: 04H1637-G1m/04L1610-lam1 (antibody, human IgG1, lambda)
heavy: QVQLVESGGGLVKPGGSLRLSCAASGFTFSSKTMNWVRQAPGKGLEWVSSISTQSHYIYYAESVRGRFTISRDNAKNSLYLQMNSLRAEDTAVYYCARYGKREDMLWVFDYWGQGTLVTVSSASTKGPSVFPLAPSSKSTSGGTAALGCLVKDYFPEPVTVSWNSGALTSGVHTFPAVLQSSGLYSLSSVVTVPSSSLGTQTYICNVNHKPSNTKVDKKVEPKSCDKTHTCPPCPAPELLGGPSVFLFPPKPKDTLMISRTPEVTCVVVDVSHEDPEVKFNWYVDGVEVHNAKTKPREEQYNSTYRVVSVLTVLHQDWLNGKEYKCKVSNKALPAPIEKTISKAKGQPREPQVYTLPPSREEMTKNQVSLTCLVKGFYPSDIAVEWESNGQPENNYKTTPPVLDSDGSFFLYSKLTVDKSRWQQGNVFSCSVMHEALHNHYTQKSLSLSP
light: QSALTQPPSASGSPGQSVTISCEGPSTGVGDYNWVHWYQQHPGKAPKLMIYFTSKKPSGVPDRFSGSKSGNTASLTVSGLQAEDEADYYCQTYAAPLGPMFGGGTKLTVLGQPKAAPSVTLFPPSSEELQANKATLVCLISDFYPGAVTVAWKADSSPVKAGVETTTPSKQSNNKYAASSYLSLTPEQWKSHRSYSCQVTHEGSTVEKTVAPTECS

- Kd [15]: 22100 nM
- Kd [16]: 5.12 nM
- Kd [17]: 366 nM
- Kd [18]: 1720 nM
- Kd [19]: 2.27 nM
- Kd [20]: 0.0261 nM
- A/I ratio (KD for FcγRIIb divided by KD for each FcγR) [21]: 4310
- A/I ratio (KD for FcγRIIb divided by KD for each FcγR) [22]: 60.3
- A/I ratio (KD for FcγRIIb divided by KD for each FcγR) [23]: 12.8
- A/I ratio (KD for FcγRIIb divided by KD for each FcγR) [24]: 9720
- Relative value to KD between G1d and hFcgRs [25]: 578
- Relative value to KD between G1d and hFcgRs [26]: 3.1
- Relative value to KD between G1d and hFcgRs [27]: 0.5
- Relative value to KD between G1d and hFcgRs [28]: 1
- Relative value to KD between G1d and hFcgRs [29]: 158
- Relative value to KD between G1d and hFcgRs [30]: 3.4
- EC50 value (hFcγRIIIaV ADCC Reporter Bioassay, Hepa1-6/hEREG target cells) [31]: 0.000304 µg/mL
- EC50 value (hFcγRIIaH ADCP Reporter Bioassay, Hepa1-6/hEREG target cells) [32]: 0.085 µg/mL
B2: H240-Kn498/L73-k0//H240-Hl518/L73-k0 (antibody, human IgG1, kappa)
heavy 1: QDQLVQSGAEVKKPGASVKVSCKASGFNIKDTYIQWVRQAPGQGLEWMGRIDPLRKQTKYREKFEGRVTITADTSTNTAYMELSSLRSEDTAVYYCVRSGREFDYWGQGTLVTVSSASTKGPSVFPLAPSSKSTSGGTAALGCLVKDYFPEPVTVSWNSGALTSGVHTFPAVLQSSGLYSLSSVVTVPSSSLGTQTYICNVNHKPSNTKVDKKVEPKSCDKTHTCPPCPAPEFQWGPMVFLFPPKPKDVLMISRTPEVTCVVVDVSDEEPEVKFNWYVDGVEVHNAKTKPREEQYNATYRVVSVLPVLHQDWLNGKEYKCKVSNKALPMPIEKTISKAKGQPREPQVCTLPPSRDELTKNQVSLWCLVKGFYPSDIAVEWESNGQPENNYKTTPPVLDSDGSFFLYSKLTVDKSRWQQGNVFSCSVMHEALHNHYTQKSLSLSP
heavy 2: QDQLVQSGAEVKKPGASVKVSCKASGFNIKDTYIQWVRQAPGQGLEWMGRIDPLRKQTKYREKFEGRVTITADTSTNTAYMELSSLRSEDTAVYYCVRSGREFDYWGQGTLVTVSSASTKGPSVFPLAPSSKSTSGGTAALGCLVKDYFPEPVTVSWNSGALTSGVHTFPAVLQSSGLYSLSSVVTVPSSSLGTQTYICNVNHKPSNTKVDKKVEPKSCDKTHTCPPCPAPELLGGPSVFLFPPKPKDVLMISRTPEVTCVVVDVSHEEPEVKFNWYVDGVEVHNAKTKPREEQYNATYRVVSVLPVLHQDWLNGKEYKCKVSNDALPMPIEETISKAKGQPREPQVYTLPPSRCELTKNQVSLSCAVKGFYPSDIAVEWESNGQPENNYKTTPPVLDSDGSFFLVSKLTVDKSRWQQGNVFSCSVMHEALHNHYTQKSLSLSP
light: DIQMTQSPSSLSASVGDRVTITCRASQDIHKYIAWYQQKPGQAPRLLIQYTSTLQPGVPSRFSGSGSGTDYTFTISSLQPEDIATYYCLQYEQLRTFGGGTKVEIKRTVAAPSVFIFPPSDEQLKSGTASVVCLLNNFYPREAKVQWKVDNALQSGNSQESVTEQDSKDSTYSLSSTLTLSKADYEKHKVYACEVTHQGLSSPVTKSFNRGEC
notes: also called EGL-ART12; ART12
